B1: TFE3 (parent)
chain: ELPNIKREISETEAKALLKERQKK

Variants of: B1
Assay: protein stability index of a GFP-peptide fusion (GPS, HEK-293T) (PSI 1-6); higher = more stable
Conditions: c terminus: a fixed tail appended
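Also: lentivirally expressed fusions sorted by FACS into six bins by GFP to DsRed ratio, PSI derived from sequencing read proportions per bin multiplied by bin number.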

Protein stability index: each site, then its substitutions
I9: F 4.51 | P 5.1 | Q 4.83 | E 5.1 | C 3.74 | R 3.88 | S 4.68 | M 2.25 | L 2.66 | G 4.67 | W 4.13 | A 4.71 | K 4.95 | T 4.49 | D 5.15 | H 5.21 | N 3.19
Q22: G 2.77 | L 2.24 | Y 1.8 | R 2.9 | A 2.73 | W 2.4 | S 2.73 | N 2.5 | I 2.52 | H 2.73 | C 2.71 | V 2.83 | D 2.11 | F 2.34 | P 2.34 | M 2.75
K23: R 2.78 | N 2.85 | L 2.91 | Y 2.1 | A 2.19 | E 2.64 | V 2.61 | M 2.4 | T 2.86 | P 2.35 | G 2.42 | C 3.09 | S 2.8 | F 2.36 | Q 2.45
S10: L 2.57 | T 2.59 | C 3.2 | F 2.65 | W 2.9 | G 3 | N 3 | E 2.15 | R 2.91 | Q 2.68 | V 3.62 | Y 2.35 | M 2.12 | I 3.13 | A 2.23
R7: M 2.63 | W 2.84 | L 2.68 | T 3.51 | K 2.44 | H 3.27 | E 2.46 | P 4.86 | V 2.46 | I 3.2 | A 2.55 | Q 2.4 | Y 2.81 | G 2.2 | N 2.58
K19: M 2.89 | E 2.62 | I 2.84 | G 1.71 | Q 2.83 | D 2.52 | R 2.32 | Y 3.06 | L 2.84 | H 2.36 | C 2.07 | T 2.42 | V 2.8 | S 2.53 | F 2.65 | N 2.57
E8: P 4.31 | S 3.69 | C 3.4 | G 3.09 | R 4.32 | Y 3.68 | K 4.06 | L 3.6 | D 2.69 | W 2.21 | N 3.46 | T 3.46 | M 3.32 | Q 3.34 | I 3.39
K24: P 2.17 | F 2.03 | S 2.28 | V 2.96 | W 2.44 | C 2.71 | G 2.76 | E 3.37 | N 3.05 | T 2.79
L18: E 2.5 | H 2.56 | P 2.77 | R 2.32 | I 3.06 | N 2.4 | A 2.67 | G 1.87 | V 2.2 | C 2.6 | M 2.05 | K 3.19 | Y 2.92 | W 2.37
P3: W 2.43 | R 3.75 | A 2.6 | D 2.89 | S 3.44 | K 3.82 | C 2.43 | L 2.02 | T 3.57 | G 3.5 | F 2.84 | M 1.93 | N 4.13
E11: C 2.87 | W 2.91 | P 4.21 | N 2.99 | A 2.89 | M 2.78 | V 2.43 | T 3.25 | R 2.5 | D 2.45 | H 3.1 | S 3.61 | K 3.48 | L 2.79
K6: H 2.49 | I 2.04 | F 2.79 | N 2.81 | S 2.5 | D 4.36 | C 2.33 | G 2.81 | V 2.24 | R 2.02 | L 2.83 | P 3.89 | M 2.75 | W 2.01 | Q 2.45 | T 3.05
E20: W 2.82 | C 2.07 | K 2.83 | G 2.78 | V 2.52 | N 2.9 | P 2.52 | Q 2.77 | I 2.29 | D 2.79 | L 2.44
E1: M 2.39 | P 4.81 | W 3.01 | L 2.29 | Q 2.99 | I 3.59 | G 4.65 | C 3.12 | S 2.87 | R 3.51 | H 2.66 | T 3.6 | N 2.75
L2: P 5.74 | H 4.51 | I 2.19 | M 2.84 | C 3.5 | D 5.49 | N 5.12 | S 5.39 | K 5.08 | Q 3.88 | G 5.23 | R 3.94 | T 4.71
I5: S 4.98 | H 4.61 | P 4.91 | D 5.33 | K 4.58 | C 3.53 | L 3.34 | R 4.4 | Y 4.3 | A 4.81 | W 3.93 | T 4.7 | N 4.22
T12: K 3.85 | F 3.78 | Y 4.15 | M 4.26 | H 4.58 | R 4.08 | N 4.46 | S 2.69 | D 4.56 | E 5.55 | P 4.73 | Q 4.67 | G 4.73 | L 4 | I 4.13
E13: L 3.06 | S 4.13 | T 4.34 | C 2.74 | N 3.83 | R 3.43 | K 3.83 | V 3.45 | P 3.92 | M 3.71 | Q 4.34 | A 4.83 | F 3.26
K15: S 2.75 | P 4.59 | W 2.42 | T 2.3 | I 2.21 | G 2.34 | R 3.15 | Y 2.31 | C 3.29 | A 2.5 | M 2.41 | Q 2.46 | D 1.98 | N 2.22 | E 1.86
L17: T 2.68 | K 3.17 | Q 2.56 | F 2.38 | M 2.71 | Y 2.48 | W 2.7 | S 2.32 | I 2.98 | A 2.74 | H 2.12 | G 2.76 | N 2.56
A16: P 4.2 | K 3.91 | C 2.2 | E 4.09 | V 2.79 | Q 4.6 | R 3.68 | L 2.34 | N 4.09 | T 2.96 | D 4.48 | F 2.08 | I 3.16 | G 3.47 | Y 2.37
N4: V 3.86 | A 2.88 | D 2.75 | R 2.34 | H 2.84 | L 3.34 | M 2.83 | G 3.62 | Q 2.02 | T 3.33 | S 3.23
R21: V 2.53 | F 2.38 | T 2.82 | G 2.28 | Q 2.73 | W 2.15 | K 2.5 | N 2.91 | P 2.32 | L 2.97 | I 2.66 | Y 2.72 | S 1.81
A14: Q 2.39 | L 2.54 | V 2.45 | W 2.69 | P 3.06 | E 3.05 | F 2.83 | D 2.17 | H 3.14 | N 2.64 | T 2 | M 2.05 | Y 2.49
